Measurements taken from the supplement of paper PMC10567573.

B1: TMEM120A (parent)
chain: YQSFVQFLQYYYQSGCLYRLRALG

Variants of: B1
Assay: protein stability index of a GFP-peptide fusion (GPS, HEK-293T) (PSI 1-6); higher = more stable
Conditions: c terminus: a fixed tail appended
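Further: lentivirally expressed fusions sorted by FACS into six bins by GFP to DsRed ratio, PSI derived from sequencing read proportions per bin multiplied by bin number.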

Variant	protein stability index
YQSFVQFLQAYYQSGCLYRLRALG [Y10A]	1.83
YQSFVQFLQCYYQSGCLYRLRALG [Y10C]	2.56
YQSFVQFLQEYYQSGCLYRLRALG [Y10E]	1.79
YQSFVQFLQGYYQSGCLYRLRALG [Y10G]	3.01
YQSFVQFLQHYYQSGCLYRLRALG [Y10H]	2.17
YQSFVQFLQIYYQSGCLYRLRALG [Y10I]	4.51
YQSFVQFLQQYYQSGCLYRLRALG [Y10Q]	2.35
YQSFVQFLQSYYQSGCLYRLRALG [Y10S]	2.58
YQSFVQFLQYAYQSGCLYRLRALG [Y11A]	1.28
YQSFVQFLQYCYQSGCLYRLRALG [Y11C]	2.45
YQSFVQFLQYFYQSGCLYRLRALG [Y11F]	3.33
YQSFVQFLQYLYQSGCLYRLRALG [Y11L]	1.34
YQSFVQFLQYMYQSGCLYRLRALG [Y11M]	3.5
YQSFVQFLQYRYQSGCLYRLRALG [Y11R]	3.03
YQSFVQFLQYSYQSGCLYRLRALG [Y11S]	3.12
YQSFVQFLQYWYQSGCLYRLRALG [Y11W]	1.74
YQSFVQFLQYYAQSGCLYRLRALG [Y12A]	3.04
YQSFVQFLQYYCQSGCLYRLRALG [Y12C]	4.09
YQSFVQFLQYYFQSGCLYRLRALG [Y12F]	2.15
YQSFVQFLQYYGQSGCLYRLRALG [Y12G]	2.04
YQSFVQFLQYYHQSGCLYRLRALG [Y12H]	2.51
YQSFVQFLQYYIQSGCLYRLRALG [Y12I]	2.34
YQSFVQFLQYYKQSGCLYRLRALG [Y12K]	1.86
YQSFVQFLQYYLQSGCLYRLRALG [Y12L]	1.19

Variant	protein stability index
YQSFVQFLQYYMQSGCLYRLRALG [Y12M]	3.19
YQSFVQFLQYYRQSGCLYRLRALG [Y12R]	2.3
YQSFVQFLQYYTQSGCLYRLRALG [Y12T]	2.73
YQSFVQFLQYYYCSGCLYRLRALG [Q13C]	3.12
YQSFVQFLQYYYFSGCLYRLRALG [Q13F]	2.43
YQSFVQFLQYYYGSGCLYRLRALG [Q13G]	2.27
YQSFVQFLQYYYHSGCLYRLRALG [Q13H]	2.75
YQSFVQFLQYYYLSGCLYRLRALG [Q13L]	2.38
YQSFVQFLQYYYMSGCLYRLRALG [Q13M]	4.22
YQSFVQFLQYYYNSGCLYRLRALG [Q13N]	2.81
YQSFVQFLQYYYSSGCLYRLRALG [Q13S]	3.55
YQSFVQFLQYYYTSGCLYRLRALG [Q13T]	1.8
YQSFVQFLQYYYWSGCLYRLRALG [Q13W]	4.1
YQSFVQFLQYYYYSGCLYRLRALG [Q13Y]	1.97
YQSFVQFLQYYYQEGCLYRLRALG [S14E]	2.56
YQSFVQFLQYYYQGGCLYRLRALG [S14G]	3.08
YQSFVQFLQYYYQHGCLYRLRALG [S14H]	2.92
YQSFVQFLQYYYQIGCLYRLRALG [S14I]	3.42
YQSFVQFLQYYYQMGCLYRLRALG [S14M]	2.02
YQSFVQFLQYYYQNGCLYRLRALG [S14N]	4.03
YQSFVQFLQYYYQQGCLYRLRALG [S14Q]	2.52
YQSFVQFLQYYYQRGCLYRLRALG [S14R]	1.84
YQSFVQFLQYYYQTGCLYRLRALG [S14T]	3.4
YQSFVQFLQYYYQVGCLYRLRALG [S14V]	3.65

Variant	protein stability index
YQSFVQFLQYYYQSICLYRLRALG [G15I]	2.66
YQSFVQFLQYYYQSLCLYRLRALG [G15L]	3.31
YQSFVQFLQYYYQSSCLYRLRALG [G15S]	2.95
YQSFVQFLQYYYQSWCLYRLRALG [G15W]	1.9
YQSFVQFLQYYYQSGKLYRLRALG [C16K]	1.72
YQSFVQFLQYYYQSGNLYRLRALG [C16N]	1.04
YQSFVQFLQYYYQSGQLYRLRALG [C16Q]	2.49
YQSFVQFLQYYYQSGRLYRLRALG [C16R]	2.24
YQSFVQFLQYYYQSGTLYRLRALG [C16T]	2.12
YQSFVQFLQYYYQSGCCYRLRALG [L17C]	3.92
YQSFVQFLQYYYQSGCDYRLRALG [L17D]	3.82
YQSFVQFLQYYYQSGCFYRLRALG [L17F]	2.63
YQSFVQFLQYYYQSGCMYRLRALG [L17M]	2.14
YQSFVQFLQYYYQSGCRYRLRALG [L17R]	4.75
YQSFVQFLQYYYQSGCTYRLRALG [L17T]	1.6
YQSFVQFLQYYYQSGCWYRLRALG [L17W]	3.23
YQSFVQFLQYYYQSGCLARLRALG [Y18A]	1.84
YQSFVQFLQYYYQSGCLERLRALG [Y18E]	2.07
YQSFVQFLQYYYQSGCLIRLRALG [Y18I]	2.96
YQSFVQFLQYYYQSGCLKRLRALG [Y18K]	1.86
YQSFVQFLQYYYQSGCLLRLRALG [Y18L]	4.02
YQSFVQFLQYYYQSGCLNRLRALG [Y18N]	1.79
YQSFVQFLQYYYQSGCLPRLRALG [Y18P]	2.45
YQSFVQFLQYYYQSGCLRRLRALG [Y18R]	1.85

Variant	protein stability index
YQSFVQFLQYYYQSGCLTRLRALG [Y18T]	1.9
YQSFVQFLQYYYQSGCLYALRALG [R19A]	2.88
YQSFVQFLQYYYQSGCLYCLRALG [R19C]	2.93
YQSFVQFLQYYYQSGCLYELRALG [R19E]	2.1
YQSFVQFLQYYYQSGCLYGLRALG [R19G]	1.88
YQSFVQFLQYYYQSGCLYHLRALG [R19H]	3.88
YQSFVQFLQYYYQSGCLYILRALG [R19I]	1.84
YQSFVQFLQYYYQSGCLYKLRALG [R19K]	3.35
YQSFVQFLQYYYQSGCLYLLRALG [R19L]	1.22
YQSFVQFLQYYYQSGCLYMLRALG [R19M]	1.97
YQSFVQFLQYYYQSGCLYPLRALG [R19P]	2.84
YQSFVQFLQYYYQSGCLYSLRALG [R19S]	3.54
YQSFVQFLQYYYQSGCLYTLRALG [R19T]	1.74
YQSFVQFLQYYYQSGCLYVLRALG [R19V]	1.95
YQSFVQFLQYYYQSGCLYWLRALG [R19W]	3.14
YQSFVQFLQYYYQSGCLYYLRALG [R19Y]	2.66
YQSFVQFLQYYYQSGCLYRARALG [L20A]	1.85
YQSFVQFLQYYYQSGCLYRDRALG [L20D]	2.38
YQSFVQFLQYYYQSGCLYRERALG [L20E]	2.34
YQSFVQFLQYYYQSGCLYRKRALG [L20K]	3.64
YQSFVQFLQYYYQSGCLYRMRALG [L20M]	2.47
YQSFVQFLQYYYQSGCLYRQRALG [L20Q]	4.03
